Literature values as cited in publication PMC10813008.

How the values were obtained:
His54 = His54 (UniProt position 54, KGSCFHRIIPG); test: NMR; conditions: not stated (ref 75 studied forms with and without immunosuppressant ligands; the review does not say which form the limit refers to)
His25 = His25 (UniProt position 26, QTCVVHYTGML); test: NMR; conditions: not stated (ref 75 studied forms with and without immunosuppressant ligands; the review does not say which form the limit refers to)
His81 = His81 (UniProt position 112, NTIVLHHGPLY); test: NMR
His61 = His61 (UniProt position 92, RYQMDHGARIF); test: NMR
His12 = His12 (UniProt position 38, KFERQHMDSST); test: mass spectrometry
His119 = His119 (UniProt position 145, PYVPVHFDASV); test: mass spectrometry
[1] = complex with 3'-cytidine monophosphate (3'-CMP)

## Cyclophilin (cyclophilin A) (not stated (probably Homo sapiens))
His54
  pKa: < 4.2

## FK506 binding protein (FKBP) (not stated (probably Homo sapiens))
His25
  pKa: < 3.6

## Phosphatidylinositol-specific phospholipase C (PI-PLC) (Bacillus cereus)
His81
  pKa: < 3
His61
  pKa: < 3

## Ribonuclease A (RNase A, pancreatic ribonuclease) (Bos taurus)
His12; [1]
  pKa: 7.1
His12; free enzyme
  pKa: 5.8
His119; [1]
  pKa: 7.0
His119; free enzyme
  pKa: 6.3
